Measurements from US20140079711A1.

Key:
[1] = molecular target: CD147 N-domain (Asp19 to Asn117 of SEQ ID NO: 1) (human); test: SPR (Biacore 3000), mAb captured by anti-mouse Fc, N-domain fragment injected
[2] = molecular target: CD147 Asp19-Asn117-Fc fusion protein (human) (UniProt P35613); test: competition ELISA on coated CD147 Asp19-Asn117-Fc; competitor 2H3; 5F6 against labeled 2H3
[3] = molecular target: CD147 Asp19-Asn117-Fc fusion protein (human) (UniProt P35613); test: competition ELISA on coated CD147 Asp19-Asn117-Fc; competitor 5F6; 2C8 as competitor against 5F6 on coated CD147 Asp19-Asn117-Fc
[4] = molecular target: CD147 Asp19-Asn117-Fc fusion protein (human) (UniProt P35613); test: competition ELISA on coated CD147 Asp19-Asn117-Fc; competitor 2H3; 2C8 as competitor against 2H3 on coated CD147 Asp19-Asn117-Fc

| Kd [1] [nM] | IC50 [2] [nM] | IC50 [3] [nM] | IC50 [4] [nM] | Binder |
| --- | --- | --- | --- | --- |
| 0.46 | 1000 | – | – | 5F6(mIgG1) (antibody, V domains shown) VH: EMKLEESGGGLVQPGGSMKLSCVASGFTFSNYWMNWVRQSPEKGLEWVAQIRLKSYNYATHYAESVKGRFTISRDDSKSSVYLQMNNLRAEDTGIYYCTPDGSDYWGQGTTLTVSS VL: SIVMTQTPKFLLVSAGDRVTITCKASQSVSNDVAWYQQKPGQSPKLLIYYASNRYTGVPDRFTGSGYGTDFTFTISTVQAEDLAVYFCQQDYSSPYTFGGGTKLEIK |
| 0.43 | – | 30 | 30 | 2C8(mIgG1) (antibody, V domains shown) VH: EMKLEESGGGLVQPGGSMKLSCVASGFTFSNYRMNWVRQSPEKGLEWVAQIRLKSYNYATHYAESVKGRFTISRDDSKSSVYLQMNNLRAEDTGIYYCTPDGSDYWGQGTTLTVSS VL: DILMTQSPSSMSVSLGDTVSITCHASQGISSSIGWLQQKPGKSFKGLIYHGTNLEDGVPSRFTGSGSGADYSLTISSLESEDFADYYCVQYAQFPYTFGGGTKLEIK |
